Data published in patent publication US12104181B2, “Compositions and methods for treating viral infections targeting TRIM7” (THE BOARD OF REGENTS OF THE UNIVERSITY OF TEXAS SYSTEM, priority 2021, dated 2024).

B1: TRIM50: human RING type E3 ligase expressed from lentiviral vector (protein, UniProt Q86XT4 1-487, looked up)
E3 ubiquitin-protein ligase …: MAWQVSLPELEDRLQCPICLEVFKEPLMLQCGHSYCKGCLVSLSCHLDAELRCPVCRQAVDGSSSLPNVSLARVIEALRLPGDPEPKVCVHHRNPLSLFCEKDQELICGLCGLLGSHQHHPVTPVSTVYSRMKEELAALISELKQEQKKVDELIAKLVNNRTRIVNESDVFSWVIRREFQELHHLVDEEKARCLEGIGGHTRGLVASLDMQLEQAQGTRERLAQAECVLEQFGNEDHHKFIRKFHSMASRAEMPQARPLEGAFSPISFKPGLHQADIKLTVWKRLFRKVLPAPEPLKLDPATAHPLLELSKGNTVVQCGLLAQRRASQPERFDYSTCVLASRGFSCGRHYWEVVVGSKSDWRLGVIKGTASRKGKLNRSPEHGVWLIGLKEGRVYEAFACPRVPLPVAGHPHRIGLYLHYEQGELTFFDADRPDDLRPLYTFQADFQGKLYPILDTCWHERGSNSLPMVLPPPSGPGPLSPEQPTKL
B2: TRIM60: human RING type E3 ligase expressed from lentiviral vector (protein, UniProt Q495X7 1-471, looked up)
Tripartite motif-containing …: MEFVTALVNLQEESSCPICLEYLKDPVTINCGHNFCRSCLSVSWKDLDDTFPCPVCRFCFPYKSFRRNPQLRNLTEIAKQLQIRRSKRKRQKENAMCEKHNQFLTLFCVKDLEILCTQCSFSTKHQKHYICPIKKAASYHREILEGSLEPLRNNIERVEKVIILQGSKSVELKKKVEYKREEINSEFEQIRLFLQNEQEMILRQIQDEEMNILAKLNENLVELSDYVSTLKHLLREVEGKSVQSNLELLTQAKSMHHKYQNLKCPELFSFRLTKYGFSLPPQYSGLDRIIKPFQVDVILDLNTAHPQLLVSEDRKAVRYERKKRNICYDPRRFYVCPAVLGSQRFSSGRHYWEVEVGNKPKWILGVCQDCLLRNWQDQPSVLGGFWAIGRYMKSGYVASGPKTTQLLPVVKPSKIGIFLDYELGDLSFYNMNDRSILYTFNDCFTEAVWPYFYTGTDSEPLKICSVSDSER
B3: TRIM49: human RING type E3 ligase expressed from lentiviral vector (protein, UniProt P0CI25 1-452, looked up)
Tripartite motif-containing …: MNSGILQVFQGELICPLCMNYFIDPVTIDCGHSFCRPCFYLNWQDIPFLVQCSECTKSTEQINLKTNIHLKKMASLARKVSLWLFLSSEEQMCGTHRETKKIFCEVDRSLLCLLCSSSQEHRYHRHRPIEWAAEEHREKLLQKMQSLWEKACENHRNLNVETTRTRCWKDYVNLRLEAIRAEYQKMPAFHHEEEKHNLEMLKKKGKEIFHRLHLSKAKMAHRMEILRGMYEELNEMCHKPDVELLQAFGDILHRSESVLLHMPQPLNPELSAGPITGLRDRLNQFRVHITLHHEEANNDIFLYEILRSMCIGCDHQDVPYFTATPRSFLAWGVQTFTSGKYYWEVHVGDSWNWAFGVCNMYRKEKNQNEKIDGKAGLFLLGCVKNDIQCSLFTTSPLMLQYIPKPTSRVGLFLDCEAKTVSFVDVNQSSLIYTIPNCSFSPPLRPIFCCIHF
modifications: lentiviral expression
notes: human RING type E3 ligase expressed from lentiviral vector
B4: TRIM61: human RING type E3 ligase expressed from lentiviral vector (protein, UniProt Q5EBN2 1-209, looked up)
Putative tripartite …: MEFVTALADLRAEASCPICLDYLKDPVTISCGHNFCLSCIIMSWKDLHDSFPCPFCHFCCPERKFISNPQLGSLTEIAKQLQIRSKKRKRQEEKHVCKKHNQVLTFFCQKDLELLCPRCSLSTDHQHHCVWPIKKAASYHRKKLEEYNAPWKERVELIEKVITMQTRKSLELKKKMESPSVTRLECSCTISAHFNLRLPGSSDSSASGS
B5: TRIM59: human RING type E3 ligase expressed from lentiviral vector (protein, UniProt Q8IWR1 1-403, looked up)
Tripartite motif-containing …: MHNFEEELTCPICYSIFEDPRVLPCSHTFCRNCLENILQASGNFYIWRPLRIPLKCPNCRSITEIAPTGIESLPVNFALRAIIEKYQQEDHPDIVTCPEHYRQPLNVYCLLDKKLVCGHCLTIGQHHGHPIDDLQSAYLKEKDTPQKLLEQLTDTHWTDLTHLIEKLKEQKSHSEKMIQGDKEAVLQYFKELNDTLEQKKKSFLTALCDVGNLINQEYTPQIERMKEIREQQLELMALTISLQEESPLKFLEKVDDVRQHVQILKQRPLPEVQPVEIYPRVSKILKEEWSRTEIGQIKNVLIPKMKISPKRMSCSWPGKDEKEVEFLKILNIVVVTLISVILMSILFFNQHIITFLSEITLIWFSEASLSVYQSLSNSLHKVKNILCHIFYLLKEFVWKIVSH
B6: TRIM52: human RING type E3 ligase expressed from lentiviral vector (protein, UniProt Q96A61 1-297, looked up)
E3 ubiquitin-protein ligase …: MAGYATTPSPMQTLQEEAVCAICLDYFKDPVSISCGHNFCRGCVTQLWSKEDEEDQNEEEDEWEEEEDEEAVGAMDGWDGSIREVLYRGNADEELFQDQDDDELWLGDSGITNWDNVDYMWDEEEEEEEEDQDYYLGGLRPDLRIDVYREEEILEAYDEDEDEELYPDIHPPPSLPLPGQFTCPQCRKSFTRRSFRPNLQLANMVQIIRQMCPTPYRGNRSNDQGMCFKHQEALKLFCEVDKEAICVVCRESRSHKQHSVLPLEEVVQEYQEIKLETTLVGILQIEQESIHSKAYNQ
modifications: lentiviral expression
notes: as for B3
B7: TRIM62: human RING type E3 ligase expressed from lentiviral vector (protein)
chain: MACSLKDELLCSICLSIYQDPVSLGCEHYFCRRCITEHWVRQEAQGARDCPECRRTFAEPALAPSLKLANIVERYSSFPLDAILNARRAARPCQAHDKVKLFCLTDRALLCFFCDEPALHEQHQVTGIDDAFDELQRELKDQLQALQDSEREHTEALQLLKRQLAETKSSTKSLRTTIGEAFERLHRLLRERQKAMLEELEADTARTLTDIEQKVQRYSQQLRKVQEGAQILQERLAETDRHTFLAGVASLSERLKGKIHETNLTYEDFPTSKYTGPLQYTIWKSLFQDIHPVPAALTLDPGTAHQRLILSDDCTIVAYGNLHPQPLQDSPKRFDVEVSVLGSEAFSSGVHYWEVVVAEKTQWVIGLAHEAASRKGSIQIQPSRGFYCIVMHDGNQYSACTEPWTRLNVRDKLDKVGVFLDYDQGLLIFYNADDMSWLYTFREKFPGKLCSYFSPGQSHANGKNVQPLRINTVRI
B8: RNF170: human RING type E3 ligase expressed from lentiviral vector (protein, UniProt Q96K19 1-258, looked up)
E3 ubiquitin-protein ligase …: MAKYQGEVQSLKLDDDSVIEGVSDQVLVAVVVSFALIATLVYALFRNVHQNIHPENQELVRVLREQLQTEQDAPAATRQQFYTDMYCPICLHQASFPVETNCGHLFCGACIIAYWRYGSWLGAISCPICRQTVTLLLTVFGEDDQSQDVLRLHQDINDYNRRFSGQPRSIMERIMDLPTLLRHAFREMFSVGGLFWMFRIRIILCLMGAFFYLISPLDFVPEALFGILGFLDDFFVIFLLLIYISIMYREVITQRLTR
modifications: lentiviral expression
notes: as for B3

Test system: coxsackievirus B3 (CVB3-GFP)
Type: cell-based
Conditions: HeLa cells, replicate R1; for Percent Infected R1: GFP-positive cells within RFP-positive gate

Molecule | Percent Infected R1 [%] | Z score R1
B1 | 57.8 | −0.392
B2 | 54.3 | −0.436
B3 | 65.7 | −0.291
B4 | 65.8 | −0.29
B5 | 59.5 | −0.37
B6 | 67.6 | −0.267
B7 | 51.3 | −0.474
B8 | 97.3 | 0.11
